Source: patent publication US20220025060A1
Read-outs that look alike come from different tables or passages of the source.

What was measured:
[1] = target: His-tagged human CD40 (h-CD40-his) recombinant protein (human) (UniProt P25942); assay: ELISA, human CD40-his coated
[2] = target: His-tagged human CD40 (h-CD40-his) recombinant protein (human) (UniProt P25942); assay: ELISA, human CD40-his coated; remark: listed apart in the source
[3] = target: His-tagged rhesus monkey CD40 (rhesus-CD40-his) recombinant protein (rhesus monkey) (UniProt F6SNI1); assay: ELISA, Rhesus CD40-his coated
[4] = target: human CD40 on HEK-Blue CD40L cells (HEK293 cells stably transfected with human CD40 gene) (human) (UniProt P25942); assay: HEK293-CD40 cell-binding (so in the source)
Chain of human CD40 on HEK-Blue CD40L cells (HEK293 cells stably transfected with human CD40 gene) (human) (P25942 21-277): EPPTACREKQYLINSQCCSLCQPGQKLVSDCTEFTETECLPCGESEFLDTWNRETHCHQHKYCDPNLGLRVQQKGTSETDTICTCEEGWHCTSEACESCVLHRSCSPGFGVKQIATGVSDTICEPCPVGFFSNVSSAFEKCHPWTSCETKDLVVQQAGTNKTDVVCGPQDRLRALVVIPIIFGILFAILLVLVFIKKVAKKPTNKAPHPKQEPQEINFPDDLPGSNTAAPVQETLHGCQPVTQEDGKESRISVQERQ

[5] = target: human CD40 on HEK-Blue CD40L cells (HEK293 cells stably transfected with human CD40 gene) (human) (UniProt P25942); assay: HEK293-CD40 cell-binding (so in the source); remark: listed apart in the source
[6] = target: Fc-tagged human CD40 (h-CD40-Fc) recombinant protein (human) (UniProt P25942); assay: hCD40/hCD40L blocking ELISA, competitor CD40L-his
Chain of Fc-tagged human CD40 (h-CD40-Fc) recombinant protein (human) (P25942 21-193 limits assumed): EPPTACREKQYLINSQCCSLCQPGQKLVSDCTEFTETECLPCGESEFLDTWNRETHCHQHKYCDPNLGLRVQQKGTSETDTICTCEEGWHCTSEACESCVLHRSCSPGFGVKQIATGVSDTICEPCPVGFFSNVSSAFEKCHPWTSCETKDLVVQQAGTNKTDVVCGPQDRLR

[7] = target: Fc-tagged human CD40 (h-CD40-Fc) recombinant protein (human) (UniProt P25942); assay: hCD40/hCD40L blocking ELISA, competitor CD40L-his; remark: listed apart in the source
[8] = target: His-tagged human CD40 (h-CD40-his) recombinant protein (human) (UniProt P25942); assay: Biacore SPR, antibody captured by anti-human antibody, CD40 antigen as analyte, 1:1 model

Chain of His-tagged human CD40 (h-CD40-his) recombinant protein (human) (P25942 21-193 limits assumed): as above
Chain of Pfizer control (hIgG4) (antibody) (VH): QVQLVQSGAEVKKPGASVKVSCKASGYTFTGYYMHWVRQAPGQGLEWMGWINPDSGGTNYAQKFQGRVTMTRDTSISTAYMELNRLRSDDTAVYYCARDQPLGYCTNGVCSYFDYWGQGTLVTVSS
Chain of Pfizer control (hIgG4) (antibody) (VL): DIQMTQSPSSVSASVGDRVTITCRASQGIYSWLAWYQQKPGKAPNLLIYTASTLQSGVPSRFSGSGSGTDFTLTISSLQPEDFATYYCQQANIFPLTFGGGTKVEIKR

Row | EC50 [1] | EC50 [2] | EC50 [3] | EC50 [4] | EC50 [5] | IC50 [6] | IC50 [7] | Kd [8] | Substance
1 | 3.29 ng/mL | 1.29 ng/mL | 1.24 ng/mL | 396 ng/mL | 1360 ng/mL | 723 ng/mL | 647 ng/mL | 166 nM | Alligator control (hIgG1) (antibody)
2 | 5.63 ng/mL | 3.98 ng/mL | 3.56 ng/mL |  |  |  |  | 20.4 nM | Pfizer control (hIgG4) (antibody)
